From patent US20160297884A1 (Pfizer, published 2016)

Legend:
Human BCMA [1] = target: T1, Human BCMA (human, UniProt Q02223 1-54, limits assumed); assay: SPR, IgG immobilised, 37 C
T1 construct: Soluble analyte in SPR; construct not described; also called huBCMA; B-cell maturation antigen
T1 sequence (looked up): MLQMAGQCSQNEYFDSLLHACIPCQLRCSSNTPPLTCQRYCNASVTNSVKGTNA
Description: (§1) All experiments were performed on a Bio-Rad Proteon XPR36 surface Plasmon resonance biosensor (Bio-Rad, Hercules, Calif.). […] The analysis temperature for the immobilization was 25° C. and the running buffer was HBS-T+(10 mM HEPES, 150 mM NaCl, 0.05% Tween-20, pH 7.4). Channels were activated in the analyte (horizontal) direction by injecting a mixture of 1 mM ECD and 0.25 mM NHS for 3 minutes at a flow rate of 30 μL/min. IgGs were immobilized on the activated spots by injecting them in the ligand (vertical) direction at 20 μg/mL in 10 mM Acetate pH 4.5 buffer for 1.5 minutes at […]. The activated surfaces were blocked by injecting 1M ethanolamine, pH 8.5 in the analyte direction for 3 minutes at 30 μL/min.
(§2) The analysis temperature for the BCMA binding analysis was 37° C. or 25° C. in a running buffer of HBS-T+, supplemented with 1 mg/mL BSA. A kinetic titration method was employed for the interaction analysis as described in Abdiche, et al. Human BCMA (huBCMA) or cynomolgus monkey BCMA (cyBCMA) analyte was injected in the analyte direction using a series of injections from low to high concentration. The concentrations used were 0.08 nM, 0.4 nM, 2 nM, 10 nM and 50 nM (a 5-membered series, with a 5-fold dilution factor and top concentration of 50 nM). The association time for a given analyte dilution was two minutes. Immediately after the 50 nM BCMA injection, dissociation was monitored for 2 hours.
(§3) The sensorgrams were double-referenced and fit to a 1:1 Langmuir with mass transport kinetic titration model in BIAevaluation Software version 4.1.1 (GE Lifesciences, Piscataway, N.J.).

Cynomolgus monkey BCMA = target: T2, Cynomolgus monkey BCMA (cynomolgus monkey); assay: SPR, IgG immobilised, cyno BCMA analyte
T2 construct: Soluble analyte in SPR; also called cyBCMA; Cyno BCMA
Description: as §1, §2, §3

Human BCMA [2] = target: T3, Human BCMA (human, UniProt Q02223 1-54, limits assumed); assay: SPR, IgG immobilised, human BCMA analyte
T3 construct: also called huBCMA; B-cell maturation antigen
T3 sequence (looked up): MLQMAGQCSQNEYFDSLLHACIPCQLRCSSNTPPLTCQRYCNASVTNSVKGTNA
Description: as §1, §2, §3

B1: L3.PY/L3.KY/H3.YA (antibody, V domains shown)
VH: EVQLLESGGGLVQPGGSLRLSCAASGFTFGSYAMTWVRQAPGKGLEWVSAISGSGGNTFYADSVKGRFTISRDNSKNTLYLQMNSLRAEDTAVYYCARVSPIYAGMDYWGQGTLVTVSS
VL: EIVLTQSPGTLSLSPGERATLSCRASQSVSSSYLAWYQQKPGQAPRLLIYGASSRATGIPDRFSGSGSGTDFTLTISRLEPEDFAVYYCKYYPYPPSFTFGQGTKVEIK
notes: IgG
Human BCMA [1]
  Kd: 0.28 nM
  T ½: 12.7 min
  koff: 0.000912 s⁻¹
  kon: 3.3e+06 M⁻¹ s⁻¹

B2: COMBO_Rd4_0.6nM_C21 (antibody, V domains shown)
VH: EVQLLESGGGLVQPGGSLRLSCAASGFTFSSYPMSWVRQAPGKGLEWVSAIGGSGGSLPYADSVKGRFTISRDNSKNTLYLQMNSLRAEDTAVYYCARYWPMDSWGQGTLVTVSS
VL: EIVLTQSPGTLSLSPGERATLSCRASQSVSSSYLAWYQQKPGQAPRLLMYDASIRATGIPDRFSGSGSGTDFTLTISRLEPEDFAVYYCQQYQSWPLTFGQGTKVEIK
notes: IgG
Cynomolgus monkey BCMA
  Kd: 0.084 nM
  koff: 0.000304 s⁻¹
  kon: 3.63e+06 M⁻¹ s⁻¹
Human BCMA [2]
  Kd: 0.009 nM
  koff: 0.000115 s⁻¹
  kon: 1.34e+07 M⁻¹ s⁻¹

B3: A02_Rd4_0.6nM_C01 (antibody, V domains shown)
VH: EVQLLESGGGLVQPGGSLRLSCAASGFTFSSYAMNWVRQAPGKGLEWVSAILSSGGSTYYADSVKGRFTISRDNSKNTLYLQMNSLRAEDTAVYYCARYWPMDIWGQGTLVTVSS
VL: EIVLTQSPGTLSLSPGERATLSCRGGQSVSSSYLAWYQQKPGQAPRLLMYDASIRATGIPDRFSGSGSGTDFTLTISRLEPEDFAVYYCQQYQSWPLTFGQGTKVEIK
notes: IgG; also called P5AC1
Cynomolgus monkey BCMA
  Kd: 0.655 nM
  koff: 0.00157 s⁻¹
  kon: 2.39e+06 M⁻¹ s⁻¹
Human BCMA [2]
  Kd: 0.193 nM
  koff: 0.000915 s⁻¹
  kon: 4.74e+06 M⁻¹ s⁻¹

B4: A02_Rd4_0.6nM_C03 (antibody, V domains shown)
VH: EVQLLESGGGLVQPGGSLRLSCAASGFTFSSYAMNWVRQAPGKGLEWVSAISDSGGSKWYADSVKGRFTISRDNSKNTLYLQMNSLRAEDTAVYYCARYWPMSLWGQGTLVTVSS
VL: EIVLTQSPGTLSLSPGERATLSCRASQSVSSSYLAWYQQKPGQAPRLLMYDASIRATGIPDRFSGSGSGTDFTLTISRLEPEDFAVYYCQQYFTWPLTFGQGTKVEIK
notes: IgG
Cynomolgus monkey BCMA
  Kd: 0.201 nM
  koff: 0.000426 s⁻¹
  kon: 2.12e+06 M⁻¹ s⁻¹
Human BCMA [2]
  Kd: 0.043 nM
  koff: 0.000182 s⁻¹
  kon: 4.27e+06 M⁻¹ s⁻¹

B5: A02_Rd4_0.6nM_C06 (antibody, V domains shown)
VH: EVQLLESGGGLVQPGGSLRLSCAASGFTFSSYAMNWVRQAPGKGLEWVSAISDSGGSAWYADSVKGRFTISRDNSKNTLYLQMNSLRAEDTAVYYCARYWPMSLWGQGTLVTVSS
VL: EIVLTQSPGTLSLSPGERATLSCRASQSVSVLYLAWYQQKPGQAPRLLMYDASIRATGIPDRFSGSGSGTDFTLTISRLEPEDFAVYYCQQYQRWPLTFGQGTKVEIK
notes: IgG
Cynomolgus monkey BCMA
  Kd: 0.058 nM
  koff: 0.000105 s⁻¹
  kon: 1.81e+06 M⁻¹ s⁻¹
Human BCMA [2]
  Kd: 0.021 nM
  koff: 7.37e-05 s⁻¹
  kon: 3.49e+06 M⁻¹ s⁻¹

B6: A02_Rd4_0.6nM_C09 (antibody, V domains shown)
VH: EVQLLESGGGLVQPGGSLRLSCAASGFTFSSYAMNWVRQAPGKGLEWVSAISDSGGSMWYADSVKGRFTISRDNSKNTLYLQMNSLRAEDTAVYYCARYWPMSLWGQGTLVTVSS
VL: EIVLTQSPGTLSLSPGERATLSCRASQSVSSSYLAWYQQKPGQAPRLLMYDASIRATGIPDRFSGSGSGTDFTLTISRLEPEDFAVYYCQQYQSWPLTFGQGTKVEIK
notes: IgG
Cynomolgus monkey BCMA
  Kd: 0.082 nM
  koff: 0.000174 s⁻¹
  kon: 2.13e+06 M⁻¹ s⁻¹
Human BCMA [2]
  Kd: 0.018 nM
  koff: 9.75e-05 s⁻¹
  kon: 5.5e+06 M⁻¹ s⁻¹

B7: A02_Rd4_0.6nM_C10 (antibody, V domains shown)
VH: EVQLLESGGGLVQPGGSLRLSCAASGFTFSSYAMNWVRQAPGKGLEWVSAISGWGGSLPYADSVKGRFTISRDNSKNTLYLQMNSLRAEDTAVYYCARYWPMDSWGQGTLVTVSS
VL: EIVLTQSPGTLSLSPGERATLSCRASQSVSAQYLAWYQQKPGQAPRLLMYDASIRATGIPDRFSGSGSGTDFTLTISRLEPEDFAVYYCQQYQRWPLTFGQGTKVEIK
notes: IgG
Cynomolgus monkey BCMA
  Kd: 1.84 nM
  koff: 0.00163 s⁻¹
  kon: 883000 M⁻¹ s⁻¹
Human BCMA [2]
  Kd: 0.129 nM
  koff: 0.000296 s⁻¹
  kon: 2.3e+06 M⁻¹ s⁻¹
